US20050153395A1, “Unique integrin binding site in connective tissue growth factor (CTGF)” (CHILDREN'S HOSPITAL INC., priority 2003, published 2005)

Columns and labels:
[1] = system: pancreatic stellate cells (PSC); assay: PSC adhesion assay on coated wells; assay type: cell-based, rat; conditions: coated at 2 μg/ml
Description: Rat PSCs were isolated by a modification of the method described by Phillips et al., Gut; 52:677-82, 2003. Briefly, pancreatic tissue was digested in situ with 0.03% collagenase P (Roche, Indianapolis, Ind.) in HBSS by perfusion through the thoracic aorta. This protocol was approved by the Institutional Animal Care and Use Committee of Children's Research Institute, Columbus, Ohio. The tissue was pooled, minced with scissors, and then digested with 0.05% collagenase P, 0.02% protease XIV (Sigma, St. Louis), and DNase I (Roche, Indianapolis, Ind.) in HBSS. The resulting cell suspension was centrifuged in a 12% Optiprep gradient at 1400 g for 14 minutes. Stellate cells separated into a hazy band just above the interface of a the gradient and the aqueous buffer. This band was harvested, and the cells washed and resuspended in DMEM supplemented with 25 mM Hepes buffer, 10% FBS, and 100 U/ml penicillin in, 100 μg/ml streptomycin. The, cells were maintained at 37° C. in a humidified atmosphere of 5% CO2/95% air.
The ability of activated PSC to adhere to non-tissue culture plastic microtiter wells coated with recombinant CTGF1-4, CTGF3-4 or CTGF4 was investigated. The solid phase binding assay was carried out as described in Example 2. […] To assess the possibility that CTGF-mediated PSC adhesion involved cell surface integrins, the effect of divalent cations on cell adhesion was examined, as described in Example 2. […]
Because CTGF is a heparin-binding protein, this property was further investigated.
To identify the peptides that bind to PSCs, cell adhesion assays were carried out as described in Example 3.
To further investigate the peptide binding, P2 or P5 (10 μM) or vehicle buffer alone (no add) were added to PSC cell suspensions for 30 minutes at room temperature.

[2] = molecular target: integrin α5β1 (Homo sapiens, UniProt P05556+P08648); assay: Solid phase ELISA of integrin α5β1 binding; conditions: for binding to integrin α5β1: coated at 2 μg/ml, 1 μg/ml integrin
Chain of integrin α5β1 (P08648 42-894 limits assumed): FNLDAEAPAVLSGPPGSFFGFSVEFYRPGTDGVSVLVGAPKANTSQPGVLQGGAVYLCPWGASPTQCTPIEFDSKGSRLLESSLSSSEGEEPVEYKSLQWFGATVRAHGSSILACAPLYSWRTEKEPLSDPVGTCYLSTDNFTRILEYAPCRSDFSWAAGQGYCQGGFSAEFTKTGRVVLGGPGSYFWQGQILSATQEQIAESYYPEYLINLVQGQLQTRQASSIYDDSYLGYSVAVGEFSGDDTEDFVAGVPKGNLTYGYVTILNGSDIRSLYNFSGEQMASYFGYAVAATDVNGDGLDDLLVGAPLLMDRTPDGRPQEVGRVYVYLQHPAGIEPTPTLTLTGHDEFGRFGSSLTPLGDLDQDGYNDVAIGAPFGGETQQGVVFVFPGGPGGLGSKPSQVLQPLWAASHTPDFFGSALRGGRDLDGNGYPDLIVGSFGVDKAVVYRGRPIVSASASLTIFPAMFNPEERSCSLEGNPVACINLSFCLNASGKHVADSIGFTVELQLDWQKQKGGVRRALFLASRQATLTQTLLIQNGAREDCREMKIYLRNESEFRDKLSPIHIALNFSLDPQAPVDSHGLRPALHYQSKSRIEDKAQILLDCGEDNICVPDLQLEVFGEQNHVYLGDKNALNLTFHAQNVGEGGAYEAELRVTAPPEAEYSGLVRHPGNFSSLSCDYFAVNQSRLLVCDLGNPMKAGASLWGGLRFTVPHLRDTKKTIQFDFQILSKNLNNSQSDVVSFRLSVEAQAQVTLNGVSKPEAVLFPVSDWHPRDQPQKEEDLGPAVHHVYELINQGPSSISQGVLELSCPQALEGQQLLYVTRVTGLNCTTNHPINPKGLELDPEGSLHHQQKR
Chain of integrin α5β1 (P08648 895-1049 partner limits assumed): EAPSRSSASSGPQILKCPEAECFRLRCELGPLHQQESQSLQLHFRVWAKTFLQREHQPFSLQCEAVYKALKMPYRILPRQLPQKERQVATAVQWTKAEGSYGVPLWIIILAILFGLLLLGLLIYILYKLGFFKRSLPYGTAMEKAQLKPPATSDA
Chain of integrin α5β1 (P05556 21-798): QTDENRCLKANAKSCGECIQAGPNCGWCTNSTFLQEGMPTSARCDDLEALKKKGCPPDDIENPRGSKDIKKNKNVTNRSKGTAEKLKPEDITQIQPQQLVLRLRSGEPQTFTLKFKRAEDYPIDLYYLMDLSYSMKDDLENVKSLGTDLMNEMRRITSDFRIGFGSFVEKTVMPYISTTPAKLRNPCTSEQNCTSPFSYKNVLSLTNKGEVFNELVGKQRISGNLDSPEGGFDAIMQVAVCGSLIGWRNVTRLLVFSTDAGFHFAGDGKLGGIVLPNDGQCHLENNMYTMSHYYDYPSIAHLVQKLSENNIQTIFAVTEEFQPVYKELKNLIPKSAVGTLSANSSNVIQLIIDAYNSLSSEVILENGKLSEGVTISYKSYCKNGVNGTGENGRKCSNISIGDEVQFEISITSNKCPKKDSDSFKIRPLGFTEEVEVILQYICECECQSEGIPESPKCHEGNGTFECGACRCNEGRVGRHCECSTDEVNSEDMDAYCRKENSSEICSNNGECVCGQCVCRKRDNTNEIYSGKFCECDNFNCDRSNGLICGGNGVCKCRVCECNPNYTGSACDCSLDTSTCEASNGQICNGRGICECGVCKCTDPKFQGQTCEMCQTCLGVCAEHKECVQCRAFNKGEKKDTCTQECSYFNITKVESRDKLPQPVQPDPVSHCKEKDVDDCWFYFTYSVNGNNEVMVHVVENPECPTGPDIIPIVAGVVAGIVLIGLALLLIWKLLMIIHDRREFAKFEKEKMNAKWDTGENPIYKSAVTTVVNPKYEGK
Description: In a second approach, a solid phase binding assay was used in which CTGF1-4 or FN were individually coated onto microtiter wells that were subsequently incubated with purified integrin α5β1. The presence of immobilized integrin α5β1 was detected by ELISA using an anti-integrin α5β1 antibody similar to the methods described in Example 3 above. In addition, CTGF1-4 bound to integrin α5β1 in a dose-dependent manner, with maximal binding at 2 μg/ml CTGF. This level of CTGF1-4 (2 μg/ml) binding was the same as that elicited by 2 μg/ml FN, a well known ligand of integrin α5β1. In a similar experiment, 2 μg/ml of CTGF1-4;CTGF3-4 or CTGF4 were individually precoated onto microtiter wells. Using the solid-phase assay, integrin α5β1 bound to CTGF1-4, CTGF3-4 or CTGF4 See FIG. 5 (Panel B).
To directly analyze whether α5β1 integrin binds to CTGF4, microtiter wells coated with CTGF4 (2 μg/ml) or FN (4 μg/ml) were used in an ELISA assay to detect integrin binding, as described in Example 3. For these assays, 1 μg/ml integrin α5β1, alone or in the presence of 35 μM of P2peptide (CTGF[257-272]) and 35 μM of P5 peptide (CTGF [285-291]), were added to the precoated plates. […] The binding between CTGF4 and integrin α5 β1 was blocked by peptide P5 (CTGF [285-291]) or peptide P2 (CTGF[257-272]). […]

[3] = system: PSCs; assay: PSC chemotaxis (migration) assay in culture insert; assay type: cell-based, rat; conditions: substance in lower chamber
Description: To examine whether CTGF plays a role in PSC migration, a chemotaxis assay was carried out in which the migratory behavior of PSCs in the upper chamber of a culture insert was assessed following addition of CTGF to the lower chamber. […] PSC migration was also promoted by FN, PDGF or TGF-β1.

[4] = system: hepatic stellate cells (HSC); assay: HSC adhesion assay on coated wells (CyQUANT fluorescence); assay type: cell-based, rat
Description: CTGF4 is known to be expressed in hepatic stellate cells (HSC) and to induce proliferation and extracellular matrix (ECM) production in these cells. (Williams et al., J Hepatol 32, 754-761, 2000; Paradis et al., Lab Invest 82, 767-774, 2002). The following experiments were carried out to determine if HSCs adhere to CTGF. HSCs were isolated from normal Sprague-Dowley rate by sequential perfusion with pronase/collagenase and purified by density gradient separation as described in Vyas et al. (Gastroenterology 109: 889-898, 1995).
The cells were subsequently detached using 1 mM EDTA PBS (137 mM NaCl, 2.7 mM KCl, 4.3 mM Na2HPO4, 1.4 mM KH2PO4, pH 7.3), washed twice in DMEM and resuspended in serum free medium containing 0.5% BSA. The cells-were plated (1.25×10^4 cells/well) in a 96 well plate coated with one of the following: 2 μg/ml CTGF isoform (CTGF1-4, CTGF3-4, CTGF4), 1 μg/ml laminin, or 4 μg/ml vitronectin and incubated for 20 minutes at 37° C. Subsequently the cells were washed with PBS and the adherent cells were fixed with 10% formalin and stained with CyQUANT GR dye/cell lysis buffer (Molecular Probes , Eugene, Oreg.) according to the manufacturer's instructions. The number of cells that adhered to CTGF isoforms or ECM protein was quantified by measuring the sample fluorescence intensity at Ex/Em: 480/520 nm using a micro-plate reader (CytoFluor™ 2350).
To determine if the CTGF-mediated HSC adhesion was carried out through integrin receptors, the experiment described above were carried out in the presence and absence of 10 mM EDTA. […] It is widely believed that Mn^2+ induces conformational shifts that mimic the physiological activation of β1 and β3 integrins (Roberts et al., J Biol Chem 278: 1975-1985, 2003, van der Pauw et al., J Periodontal Res 37: 317-323, 2002) as Mn^2+-induced activation leads to enhanced ligand-binding affinity and cell adhesion (Mould et al., J Biol Chem 277: 19800-19805, 2002, Loftus & Liddington J Clin Invest 100: S77-81, 1997, Lin et al., J Biol Chem 272: 14236-14243, […]). […]

[5] = system: PSCs; assay: PSC DNA synthesis, [3H]thymidine incorporation; assay type: cell-based, rat; conditions: 24 hours; CTGF1-4 effect in 0.1% serum, not in serum-free medium
Description: To measure the effect of CTGF on cell proliferation, DNA synthesis was measured by ^3H incorporation in PSCs. The cells were incubated for 24 hours with 0.2 μCi [^3H] thymidine in each well (24-well plate). The incorporation of [^3H] thymidine into PSC DNA was determined using a scintillation counter after the cells had been washed with PBS, fixed with 10% methanol, treated with cold 5% trichloroacetic acid, and lysed in 0.3 N NaOH.

[6] = system: collagen I mRNA; assay: Collagen I mRNA expression in PSCs; assay type: cell-based, rat

| Molecule | PSC adhesion supported by the coated substance [1] | binding to integrin α5β1 [2] | PSC migration [3] | inhibition of HSC adherence to CTGF[257-272] ([4]; peptide-coated wells, heparin 2 μg/ml) | inhibition of CTGF4-mediated HSC adhesion ([4]; wells coated 2 μg/ml CTGF4, EDTA 10 mM, GRGDsp 1 mM, Echistatin 2 μM, antibody/IgG 25 μg/ml, heparin 2 μg/ml) | inhibition of vitronectin-mediated HSC adhesion ([4]; wells coated 4 μg/ml vitronectin) | binding to integrin α5β1, maximal binding at ([2]; coated protein) [µg/mL] | PSC proliferation (DNA synthesis) [5] | collagen I mRNA expression in PSCs [6] |
| --- | --- | --- | --- | --- | --- | --- | --- | --- | --- |
| CTGF3-4: C-terminal CTGF fragment comprising modules 3 and 4 (protein) AYRLEDTFGPDPTMIRANCLVQTTEWSACSKTCGMGISTRVTNDNASCRLEKQSRLCMVRPCEADLEENIKKGKKCIRTPKISKPIKFELSGCTSMKTYRAKFCGVCTDGRCCTPHRTTTLPVEFKCPDGEVMKKNMMFIKTCACHYNCPGDNDIFESLYYRKMYGDMA | significantly promoted | bound | induced PSC migration |  |  |  |  |  |  |
| Heparinase I: enzyme that acts on highly sulfated heparan sulfate proteoglycans (protein, UniProt Q05819 22-384, looked up) Heparin lyase I: QQKKSGNIPYRVNVQADSAKQKAIIDNKWVAVGINKPYALQYDDKLRFNGKPSYRFELKAEDNSLEGYAAGETKGRTELSYSYATTNDFKKFPPSVYQNAQKLKTVYHYGKGICEQGSSRSYTFSVYIPSSFPDNATTIFAQWHGAPSRTLVATPEGEIKTLSIEEFLALYDRMIFKKNIAHDKVEKKDKDGKITYVAGKPNGWKVEQGGYPTLAFGFSKGYFYIKANSDRQWLTDKADRNNANPENSEVMKPYSSEYKTSTIAYKMPFAQFPKDCWITFDVAIDWTKYGKEANTILKPGKLDVMMTYTKNKKPQKAHIVNQQEILIGRNDDDGYYFKFGIYRVGNSTVPVTYNLSGYSETAR |  |  |  | abrogated | unable to adhere | adhered to vitronectin |  |  |  |
| CTGF1-4: full length CTGF protein, 38 kDa (protein) QNCSGPCRCPDEPAPRCPAGVSLVLDGCGCCRVCAKQLGELCTERDPCDPHKGLFCDFGSPANRKIGVCTAKDGAPCIFGGTVYRSGESFQSSCKYQCTCLDGAVGCMPLCSMDVRLPSPDCPFPRRVKLPGKCCEEWVCDEPKDQTVVGPALAAYRLEDTFGPDPTMIRANCLVQTTEWSACSKTCGMGISTRVTNDNASCRLEKQSRLCMVRPCEADLEENIKKGKKCIRTPKISKPIKFELSGCTSMKTYRAKFCGVCTDGRCCTPHRTTTLPVEFKCPDGEVMKKNMMFIKTCACHYNCPGDNDIFESLYYRKMYGDMA | significantly promoted | bound | induced PSC migration |  |  |  | 2 | significantly enhanced | significantly increased |
